The numbers were not newly measured in publication PMC8359934, which cites them from elsewhere.

For this series, the target named is sNUCB1 (Homo sapiens) (UniProt Q02818). The series can be described thus: SEC-MALS.

Consider sNUCB1 (from UniProt Q02818), for which the dissociation constant Kd (as a rule, the free concentration of one partner at which half of the binding sites on the other are occupied at equilibrium, for simple one-to-one binding) was 260 nM.
